The target in experiment [1] is T1, human IL-13 (human, UniProt P35225 25-146, limits assumed).
T1 construct: The KinExA antigen was detected with an anti-HIS IgG, so it probably carried a HIS tag; also called Interleukin-13; hIL-13
Briefly: KinExA, 25 C. Background: In KinExA the mixture passes briefly over coated beads that capture the unbound partner.

Experiment [2] deals with T1, human IL-13. The experiment in a line: cell-based or functional assay.
Experiment [3] concerns the target T1, human IL-13. The experiment in a line: KinExA, solution equilibrium, free antigen captured on Ref1-coated beads, 25 C.
Experiment [4] concerns the target T2, cynomolgus IL-13 (cynomolgus, UniProt Q0PW92 21-132). The description is as above.
A further experiment has as its target T3, mouse IL-13 (mouse, UniProt P20109 19-131, limits assumed).
T3 construct: also called recombinant mouse IL-13
T3 sequence (looked up): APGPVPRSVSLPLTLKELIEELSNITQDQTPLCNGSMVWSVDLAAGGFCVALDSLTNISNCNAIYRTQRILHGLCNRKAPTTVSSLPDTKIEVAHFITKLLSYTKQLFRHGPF
Briefly: SPR (Biacore 8K+), antibody captured on anti-human IgG Fc chip, IL-13 as analyte, 25 C.

The target in experiment [5] is T1, human IL-13. Briefly: SPR (Biacore 8K+), antibody captured, human IL-13 as analyte, 37 C; less than 5% decay in 5,400 s, KD estimated.
The target of experiment [6] is T1, human IL-13. Briefly: SPR (Biacore 8K+), antibody captured on anti-human Fc CM4 chip, human IL-13 0.6-10 nM as analyte, 37 C, 1:1 fit. On the technique in general: SPR reads the build-up and loss of mass on a sensor chip optically.
Experiment [7] has as its target T1, human IL-13. The experiment in a line: SPR array (Carterra LSA), antibody captured on anti-human pAb HC30M chip, human IL-13 0.05-100 nM as analyte, 25 C, 1:1 fit.
For experiment [8], the target named is T4, human FcγRI (human, UniProt P12314 16-288, limits assumed, biotinylated (site not stated)). Briefly: BLI (summary of Example 8).
T4 sequence (P12314 16-288 limits assumed): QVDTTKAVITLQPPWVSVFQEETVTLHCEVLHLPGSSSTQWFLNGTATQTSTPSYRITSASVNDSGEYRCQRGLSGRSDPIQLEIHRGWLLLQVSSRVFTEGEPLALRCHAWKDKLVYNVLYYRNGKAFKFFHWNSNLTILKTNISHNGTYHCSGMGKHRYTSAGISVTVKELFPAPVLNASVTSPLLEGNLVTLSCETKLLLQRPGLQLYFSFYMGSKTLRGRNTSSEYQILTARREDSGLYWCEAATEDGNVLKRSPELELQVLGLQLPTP
Experiment [9] concerns the target T5, human FcγRIIa-H167 (human, UniProt P12318 36-218, limits assumed, biotinylated (site not stated)).
T5 sequence (looked up): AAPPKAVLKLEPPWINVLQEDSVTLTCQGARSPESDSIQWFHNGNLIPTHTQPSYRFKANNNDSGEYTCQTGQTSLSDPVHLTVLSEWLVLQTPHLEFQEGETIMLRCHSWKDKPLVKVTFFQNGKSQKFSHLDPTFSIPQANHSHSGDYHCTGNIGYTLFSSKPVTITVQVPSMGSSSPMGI
Briefly: BLI (summary of Example 8).

In experiment [10] the target is T6, human FcγRIIa-R167 (human, UniProt P12318 36-218, limits assumed, biotinylated (site not stated)).
T6 sequence (looked up): T5 sequence (looked up) with H132R
Briefly: BLI (summary of Example 8).

The target in experiment [11] is T7, human FcγRIIb (human, UniProt P31994 46-217, limits assumed, biotinylated (site not stated)).
T7 sequence (looked up): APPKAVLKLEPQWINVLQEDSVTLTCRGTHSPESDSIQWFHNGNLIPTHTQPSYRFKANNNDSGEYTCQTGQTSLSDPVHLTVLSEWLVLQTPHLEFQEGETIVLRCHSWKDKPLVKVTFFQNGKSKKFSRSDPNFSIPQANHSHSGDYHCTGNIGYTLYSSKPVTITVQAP
Briefly: BLI (summary of Example 8).

Experiment [12] deals with T1, human IL-13. The experiment in a line: cell-based or functional assay. The source holds these as a separate data set.
The target in experiment [13] is T1, human IL-13. Briefly: cell-based or functional assay. This is another data set of the same source.
The target in experiment [14] is T2, cynomolgus IL-13. Briefly: cell-based or functional assay.
In experiment [15] the target is T8, HIS-tagged human FcRn (human, UniProt P55899 24-297; P61769 21-119).
T8 construct: not shown: HIS tag
T8 sequence (P55899 24-297 limits assumed, chain 1 of 2): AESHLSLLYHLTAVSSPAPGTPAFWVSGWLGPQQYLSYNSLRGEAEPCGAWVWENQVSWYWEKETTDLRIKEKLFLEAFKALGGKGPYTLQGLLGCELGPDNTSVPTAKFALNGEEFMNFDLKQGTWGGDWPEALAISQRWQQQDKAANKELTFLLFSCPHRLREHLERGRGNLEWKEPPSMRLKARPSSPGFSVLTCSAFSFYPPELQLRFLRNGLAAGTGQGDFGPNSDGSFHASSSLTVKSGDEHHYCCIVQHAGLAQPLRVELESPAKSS
T8 sequence (P61769 21-119 limits assumed, chain 2 of 2): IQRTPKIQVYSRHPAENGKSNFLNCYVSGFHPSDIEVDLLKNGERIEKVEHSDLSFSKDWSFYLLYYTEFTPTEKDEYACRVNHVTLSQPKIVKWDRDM
The experiment in a line: SPR (Biacore 8K+), pH 6.0, 25 C, steady-state fit.

The target in a further experiment is human FcγRIIIb-NA1 (human, UniProt O75015 17-200, limits assumed, biotinylated (site not stated)). Briefly: BLI (Octet RH96), biotinylated Fcγ receptor on streptavidin sensors.
human FcγRIIIb-NA1, sequence (O75015 other isoform, or with tags, fused parts or gaps limits assumed): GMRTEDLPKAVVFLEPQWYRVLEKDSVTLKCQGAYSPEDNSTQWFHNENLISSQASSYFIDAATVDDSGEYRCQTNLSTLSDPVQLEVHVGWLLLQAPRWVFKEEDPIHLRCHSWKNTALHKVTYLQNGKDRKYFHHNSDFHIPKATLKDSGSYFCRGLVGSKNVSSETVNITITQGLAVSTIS
Another experiment deals with human FcγRIIIb-NA2 (human, UniProt O75015 17-200, limits assumed, biotinylated (site not stated)). Described as above.
human FcγRIIIb-NA2, sequence (O75015 17-200 N65S limits assumed): as the sequence (O75015 other isoform, or with tags, fused parts or gaps limits assumed) above, with R20S, N49S, D66N, V90I counted along it
The target of another experiment is human FcγRIIIa-V176 (human, UniProt P08637 17-208, biotinylated (site not stated)). Briefly: BLI (Octet RH96), biotinylated Fcγ receptor on streptavidin sensors, antibody at 10,000 nM. (Biolayer interferometry detects binding as a change in optical thickness at a sensor tip.)
human FcγRIIIa-V176, sequence (P08637 17-208 F176V limits assumed): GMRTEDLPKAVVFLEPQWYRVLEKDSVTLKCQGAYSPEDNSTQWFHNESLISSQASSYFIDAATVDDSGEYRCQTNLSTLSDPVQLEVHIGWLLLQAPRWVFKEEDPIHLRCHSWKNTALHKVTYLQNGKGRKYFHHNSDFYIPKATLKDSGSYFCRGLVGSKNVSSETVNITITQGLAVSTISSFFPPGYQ
For a further experiment, the target named is human FcγRIIIa-F176 (human, UniProt P08637 17-208, biotinylated (site not stated)). The description is as above.
human FcγRIIIa-F176, sequence (P08637 17-208 limits assumed): as the sequence (P08637 17-208 F176V limits assumed) above, with V160F counted along it
For experiment [16], the target named is T8, HIS-tagged human FcRn. Briefly: SPR (Biacore 8K+), antibody captured on anti-human Fab CM4 chip, HIS-tagged human FcRn 9.8-5000 nM as analyte, pH 6.0, 25 C, steady-state fit.
For experiment [17], the target named is T4, human FcγRI. Briefly: BLI (Octet RH96), biotinylated Fcγ receptor on streptavidin sensors, antibody at 10,000 nM.
The target in experiment [18] is T5, human FcγRIIa-H167. The description is as above.
Experiment [19] has as its target T6, human FcγRIIa-R167. Described as above.
Experiment [20] deals with T7, human FcγRIIb. Described as above.
The target of experiment [21] is T1, human IL-13. The experiment in a line: SPR (Biacore 8K+), antibody captured on anti-human pAb CM4 chip, human IL-13 0.6-10 nM as analyte, 37 C, 1:1 fit.

Where a chain is given by its changes, count along the chain named.

The Kd is the free concentration of one partner at which half of the binding sites on the other are occupied at equilibrium, for simple one-to-one binding. By koff is commonly meant the first-order rate constant of dissociation. One may read the kon as the rate constant with which the complex forms. Read a low kon as slow association.

T2 sequence (Q0PW92 entry or part of it): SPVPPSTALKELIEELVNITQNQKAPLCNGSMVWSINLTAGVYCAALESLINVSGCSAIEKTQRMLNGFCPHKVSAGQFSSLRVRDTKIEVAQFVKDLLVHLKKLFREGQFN
T1 sequence (P35225 other isoform, or with tags, fused parts or gaps limits assumed): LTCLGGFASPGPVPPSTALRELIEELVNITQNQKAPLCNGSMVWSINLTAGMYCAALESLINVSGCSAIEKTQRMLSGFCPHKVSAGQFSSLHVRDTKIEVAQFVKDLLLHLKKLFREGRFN

B1: AbG (antibody, human IgG1, kappa)
heavy: QVTLRESGPALVKPTQTLTLTCTVSGASLSAYSVNWIRQPPGKALEWLAMIWGDGKIVYNSALKSRLTISKDTSKNQVVLTMTNMDPVDTATYYCAGDGYFPYAMDNWGQGSLVTVSSASTKGPSVFPLAPSSKSTSGGTAALGCLVKDYFPEPVTVSWNSGALTSGVHTFPAVLQSSGLYSLSSVVTVPSSSLGTQTYICNVNHKPSNTKVDKRVEPKSCDKTHTCPPCPAPELLGGPSVFLFPPKPKDTLYITREPEVTCVVVDVSHEDPEVKFNWYVDGVEVHNAKTKPREEQYNSTYRVVSVLTVLHQDWLNGKEYKCKVSNKALPAPIEKTISKAKGQPREPQVYTLPPSREEMTKNQVSLTCLVKGFYPSDIAVEWESNGQPENNYKTTPPVLDSDGSFFLYSKLTVDKSRWQQGNVFSCSVMHEALHNHYTQKSLSLSPGK
light: DIVMTQSPDSLSVSLGERATINCRASKSVDSYGNSYMHWYQQKPGQPPKLLIYLASNLESGVPDRFSGSGSGTDFTLTISSLQAEDVAVYYCQQNNEDPRTFGGGTKVEIKRTVAAPSVFIFPPSDEQLKSGTASVVCLLNNFYPREAKVQWKVDNALQSGNSQESVTEQDSKDSTYSLSSTLTLSKADYEKHKVYACEVTHQGLSSPVTKSFNRGEC
notes: also called Antibody AbG
Take B1: the “fold higher affinity than Ref2” value in the experiment with human IL-13 [1] is 40 fold. Besides, the “IC50, HEK-Blue IL-13Ra1/IL-4Ra STAT6-SEAP reporter assay” value with human IL-13 [2] is 0.174 µg/mL. Moreover, the Kd was 0.00023 nM with human IL-13 [3]; 0.00072 nM in the experiment with cynomolgus IL-13 [4]; less than 0.015 nM with human IL-13 [5]; 0.0126 nM with human IL-13 [6]; less than 0.1 nM in the experiment with human IL-13 [7]. Moreover, the results for the koff in the experiment with human IL-13 [3], in the experiment with cynomolgus IL-13 [4] and in the experiment with human IL-13 [6] were 4.8e-07 s⁻¹, 1.77e-06 s⁻¹ and 7.68e-06 s⁻¹, respectively. In addition, the kon was found to be 2.06e+06 M⁻¹ s⁻¹ in the experiment with human IL-13 [3], 2.46e+06 M⁻¹ s⁻¹ in the experiment with cynomolgus IL-13 [4] and 639000 M⁻¹ s⁻¹ with human IL-13 [6]. In addition, in the experiment with mouse IL-13, the binding result is “no binding”.

B2: AbAB (antibody, human IgG1, kappa)
heavy: B1 heavy with L235F, L236E, P332S
light: B1 light
notes: same variable regions as AbG; also called Antibody AbAB
Consider B2, for which the binding result with human FcγRI [8] is “binds”; in the experiment with human FcγRIIa-H167 [9], “binds”; in the experiment with human FcγRIIa-R167 [10] it was “binds”; with human FcγRIIb [11] it was “binds”; with human FcγRIIIb-NA1, “no binding (tested: 10,000 nM)”; with human FcγRIIIb-NA2, “no binding (tested: 10,000 nM)”. The binding result with human FcγRIIIa-V176 is “binds”; with human FcγRIIIa-F176, “binds”; in the experiment with mouse IL-13, “no binding”. Further, in the experiment with human IL-13 [12], the “Mean IC50 (nM), HEK-Blue IL-4/IL-13 assay with 3.7 nM IL-13” value was 0.113 nM. Besides, in the experiment with human IL-13 [13], the “Mean IC50 (nM) Donor 1, Phospho-STAT6 assay in human CD14+ monocytes” value was determined as 34.9 nM. Further, the “Mean IC50 (nM) Donor 2, Phospho-STAT6 assay in human CD14+ monocytes” value in the experiment with human IL-13 [13] was 33 nM. Besides, in the experiment with human IL-13 [13], the “Mean IC50 (nM) Donor 3, Phospho-STAT6 assay in human CD14+ monocytes” value was found to be 37.7 nM. For the same molecule, the “Mean IC50 (nM) Donor 1, Phospho-STAT6 assay in cynomolgus CD14+ monocytes” value with cynomolgus IL-13 [14] is 18.8 nM. In the experiment with cynomolgus IL-13 [14], the “Mean IC50 (nM) Donor 2, Phospho-STAT6 assay in cynomolgus CD14+ monocytes” value was found to be 15.1 nM. The “Mean IC50 (nM) Donor 3, Phospho-STAT6 assay in cynomolgus CD14+ monocytes” value with cynomolgus IL-13 [14] is 18.1 nM. In addition, the “fold higher affinity than Ref2” value in the experiment with HIS-tagged human FcRn [15] worked out at 6 fold. The Kd with human IL-13 [6] amounted to 0.00722 nM; in the experiment with HIS-tagged human FcRn [16], 129 nM. For the same molecule, in the experiment with human IL-13 [6], the koff was 4.85e-06 s⁻¹. This molecule also had a kon with human IL-13 [6] of 676000 M⁻¹ s⁻¹.

B3: Ref3 (antibody, human IgG1, kappa)
heavy: B1 heavy with A27F, F101Y, L235F, L236E, P332S
light: B1 light with Y36F
With B3, in the experiment with human IL-13 [13], the “Mean IC50 (nM) Donor 1, Phospho-STAT6 assay in human CD14+ monocytes” value is 32.2 nM; the “Mean IC50 (nM) Donor 2, Phospho-STAT6 assay in human CD14+ monocytes” value worked out at 31.3 nM; the “Mean IC50 (nM) Donor 3, Phospho-STAT6 assay in human CD14+ monocytes” value stood at 33.9 nM. Further, in the experiment with mouse IL-13, the binding result is on record as “no binding”. In the experiment with human IL-13 [6], this molecule registered a dissociation constant Kd of 0.0507 nM, a koff of 2.52e-05 s⁻¹ and a kon of 501000 M⁻¹ s⁻¹.

B4: Ref2 (antibody, human IgG4 S228P, kappa)
heavy: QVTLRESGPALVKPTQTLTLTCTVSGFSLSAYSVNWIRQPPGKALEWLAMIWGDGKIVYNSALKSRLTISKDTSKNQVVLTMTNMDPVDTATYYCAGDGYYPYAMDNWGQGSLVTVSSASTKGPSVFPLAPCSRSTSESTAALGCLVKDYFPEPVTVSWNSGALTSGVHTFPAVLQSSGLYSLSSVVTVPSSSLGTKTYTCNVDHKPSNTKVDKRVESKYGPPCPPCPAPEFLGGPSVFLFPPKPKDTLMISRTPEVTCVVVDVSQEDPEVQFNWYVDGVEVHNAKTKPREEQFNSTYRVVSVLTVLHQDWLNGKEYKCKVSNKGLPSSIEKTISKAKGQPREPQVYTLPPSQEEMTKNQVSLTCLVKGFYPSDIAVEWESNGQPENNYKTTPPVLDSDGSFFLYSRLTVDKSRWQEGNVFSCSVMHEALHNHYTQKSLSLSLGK
light: B1 light with Y36F
notes: hIgG4; copies: 2 + 2
Take B4: in the experiment with human IL-13 [2], the “IC50, HEK-Blue IL-13Ra1/IL-4Ra STAT6-SEAP reporter assay” value worked out at 0.277 µg/mL. Also, the binding result was “no binding (tested: 10,000 nM)” in the experiment with human FcγRIIIb-NA1; “no binding (tested: 10,000 nM)” with human FcγRIIIb-NA2; “binds” with human FcγRI [17]; “binds” in the experiment with human FcγRIIa-H167 [18]; “binds” in the experiment with human FcγRIIa-R167 [19]; “binds” with human FcγRIIb [20]. Further, the binding result is given as “binds” with human FcγRIIIa-F176 and “no binding” with mouse IL-13. Moreover, the Kd with human IL-13 [3] was determined as 0.00909 nM; with human IL-13 [21], 0.0512 nM; with HIS-tagged human FcRn [16], 734 nM. Besides, the koff with human IL-13 [3] is 9.76e-06 s⁻¹; with human IL-13 [21], 3.22e-05 s⁻¹. Also, the kon turned out to be 1.07e+06 M⁻¹ s⁻¹ with human IL-13 [3] and 695000 M⁻¹ s⁻¹ with human IL-13 [21].

B5: Ref1 (antibody, human IgG1, kappa)
heavy: B1 heavy with A27F, F101Y
light: B1 light with Y36F
notes: hIgG1-YTE
As to B5, the “IC50, HEK-Blue IL-13Ra1/IL-4Ra STAT6-SEAP reporter assay” value with human IL-13 [2] was 0.143 µg/mL. Moreover, the Kd with human IL-13 [3] was 0.00613 nM; with cynomolgus IL-13 [4] it was 0.00052 nM; in the experiment with human IL-13 [6] it was 0.0551 nM; with human IL-13 [21] it was 0.0484 nM; with human IL-13 [7], less than 0.1 nM. Besides, the koff with human IL-13 [3] is 9.37e-06 s⁻¹; in the experiment with cynomolgus IL-13 [4] it was 1.09e-06 s⁻¹; with human IL-13 [6] it was 2.66e-05 s⁻¹; with human IL-13 [21], 2.64e-05 s⁻¹. The kon in the experiment with human IL-13 [3] amounted to 1.53e+06 M⁻¹ s⁻¹; with cynomolgus IL-13 [4], 2.09e+06 M⁻¹ s⁻¹; in the experiment with human IL-13 [6], 483000 M⁻¹ s⁻¹; with human IL-13 [21], 594000 M⁻¹ s⁻¹.

The record behind these values is patent US20260116963A1 (GENERATE BIOMEDICINES, published 2026).
